Experimental findings from PMC9428403 are described below.

In general, stoichiometry N refers to a count of units in the complex or per binding partner.

In experiment [1] the target is mouse PKM2 (AA 1-531), recombinant (mouse) (UniProt P52480). In words: SEC; Superdex 200 increase 10/300 GL, 150 mM NaCl, 20 mM Tris-HCl; purified PKM2 incubated with or without Shikonin; dimer and tetramer mixture eluted at 13 ml. For orientation: Size exclusion chromatography separates by hydrodynamic size, large species first.
The target of experiment [2] is PKM2 (endogenous, RAW264.7 macrophages) (mouse (endogenous in RAW264.7)) (UniProt P52480). In words: cross-linking; RAW264.7 cells pre-treated 1 h with Shikonin (0.5, 1, 2 μM) or not, challenged with LPS (250 ng/ml) + IFN-γ (100 ng/ml) for 24 h; cells cross-linked with disuccinimidyl suberate (500 nM as printed) 30 min at room temperature, quenched with Tris-HCl pH 7.5; lysates analysed by western blot for PKM2.

Several values for one entry are separate records, joined by “and”; a condition that tells them apart may be missing. Equal entries are not always repeated.

Sequence of PKM2 (endogenous, RAW264.7 macrophages), P52480 1-531 (enzyme; other documents disagree on this pair) (P52480 whole entry): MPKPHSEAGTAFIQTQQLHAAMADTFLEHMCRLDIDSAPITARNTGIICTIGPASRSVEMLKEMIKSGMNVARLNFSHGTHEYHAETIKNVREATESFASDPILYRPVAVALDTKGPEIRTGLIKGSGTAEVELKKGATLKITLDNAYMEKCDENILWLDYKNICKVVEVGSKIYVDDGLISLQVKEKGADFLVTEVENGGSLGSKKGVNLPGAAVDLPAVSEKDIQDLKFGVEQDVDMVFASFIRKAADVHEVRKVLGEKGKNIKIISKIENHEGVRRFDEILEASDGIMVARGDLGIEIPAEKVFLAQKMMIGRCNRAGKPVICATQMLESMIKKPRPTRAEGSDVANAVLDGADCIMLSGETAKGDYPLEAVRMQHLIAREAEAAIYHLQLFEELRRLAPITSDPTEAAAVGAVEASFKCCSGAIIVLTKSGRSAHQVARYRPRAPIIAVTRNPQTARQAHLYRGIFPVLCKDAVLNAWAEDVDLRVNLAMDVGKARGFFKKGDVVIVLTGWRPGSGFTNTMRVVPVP
Sequence of mouse PKM2 (AA 1-531), recombinant, P52480 1-531 (enzyme; other documents disagree on this pair) (P52480 whole entry, the tested form may be a part): as the sequence (P52480 whole entry) above

Consider “mouse PKM2 (AA 1-531), recombinant, P52480 1-531 (enzyme; other documents disagree on this pair)”, for which the stoichiometry N in experiment [1] is 2 and 4. As for “PKM2 (endogenous, RAW264.7 macrophages), P52480 1-531 (enzyme; other documents disagree on this pair)”, the stoichiometry N in experiment [2] was 4 and 2.
